The values below come from the nanobody polyreactivity screen of Harvey et al. (2022).

The data set can be described thus: yeast display, Sf9 membrane polyspecificity reagent, FACS + sequencing; frameworks hold sequencing errors. The gist of the method: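 Genes from sorted yeast were amplified by colony PCR, read by MiSeq 2 × 250 sequencing and filtered on CDR length. These cells carried a synthetic nanobody library in Saccharomyces cerevisiae BJ5465 and were sorted by FACS into low and high (top ~1%) gates on anti-HA and streptavidin fluorescence. Polyreactivity is labelled according to the gate of origin.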
With “QVQHVESGGGLVQAGSLRLSCAASGSTFPYNAMGWYREAPGKERELVATISWSGGSTYYADSVKGRFTISRDNAKNTVYLQMNSLKPEDTAVYYCNATYGSSYDYWGQGTQVTVSS”, the “polyreactivity (PSR sort gate)” value was “low polyreactivity”.
Consider “QVHLVESGGGLVQAGGSLRLSCAASGSTFFIYTMGWYRQAPGKEREFVAAISWTGGRTYYADSVKGRFTISRDNAKNTVFLQMNSLKPEDTAVYYCAARYKYYSYDYWGQGTQVTVSS”, for which the “polyreactivity (PSR sort gate)” value is listed as “high polyreactivity”.
For the sequence “QVQLVESGGGLVQAGGSLRLSCAASGHTFTINAMGWYRQAPGKERELVAAITFSGGRTYYADSVKGRFTISRDNAKNTVYLQMNSLKPEDTAVYYCAADNPGGSIYDYWGQGTQVTVSS”, the “polyreactivity (PSR sort gate)” value is listed as “low polyreactivity”.
With “QVQLVESGGGLVQAGGRLRLSCAASGITFYHYAMGWYRQAPGKERELVAAITRSGGRTYYAVSVKGRFTISRDTANNTVYVEMYSLKPEVTAVYYSAARWQKTAGRYYYWGQGTQVTGSS”, the “polyreactivity (PSR sort gate)” value is recorded as “high polyreactivity”.
As for “QVQLVESGGGLVQAGGSLRLSCAASGSIFNAYVMGWYRQAPGKERELVAAISRSGGRTYYADSVKGRFTISRDNAKNTVYLQMNSLKPEDTAVYYCAADYGGPYGQLDYWGQGTQVTVSS”, the entry is “high polyreactivity”; as for “QVQLVDSGGGLVQAGGSLRLSAASGSTLSGNTMGWYRQAPGKERELVAAINDSGGSTYYADSVKGRFTISRDNAKNTVYLQMNSLKPEDTAVYYCAAETGYAFDYWGQGTQVTVSS”, “low polyreactivity”; as for “QGQLVESGGGLVQAGGSLRLSCAASGRTFVRNAMGWSSQGPGKEREWVAAISSIGDSTYYAYSLKGRFTISRDNAKNTVYLQLNTLKPEDTAVYYCAAECVTSYYNYYHWGQGTQVTVSS”, “low polyreactivity”.
“QVQLVESGGGLVQAGGSLRLSCAASGRIISNYAMGWYRQAPGNERELVAAITVIGGRTYYADSVKGRFTISRDNAKNTVYLQMNSLKPEDTAVYYCNAEEYWYDGFYWLSYDYWGQGTQVTVSS”: the “polyreactivity (PSR sort gate)” value was “high polyreactivity”.
Turning to “QVQLVESGGGLVQAGVSLRLSCAASGSIFGFNAMGWYRQAPGKEWELVAAINNGGSTNYADSVKGRFTISRDNAKNTVYLQMNSLKPEDTAVYYFAAERWFYRSKFDYWGQGTQVTVSS”, the “polyreactivity (PSR sort gate)” value is reported as “high polyreactivity”.
As for “QVQLVESGGGLVQAGGSLRLICAASGSTNPRNAMGWYRQAPGKERELDADITSGGSTNYADSVKGRFTISRDNAKNTVYLQMNRLKPEDTAVYYCAADEQVNTQYVVWGDYWGQGTQVTVSS”, the entry is “low polyreactivity”.
On to “QVQLVESGGGLVQAGASLRLSCAPSGRIFGPNTMGWSRQAPGKEREVVAAITRRGGSTYYADSVKGRFTISRDNAKNTVYLQMNSLKPEDTAVYYCAAVGQKRSLGFSWGQGTQVTVSS”, for which the “polyreactivity (PSR sort gate)” value was “low polyreactivity”.
With “QVQIVESGGGLVQAGGSLRLSCAASGFTIDQYAMGWYRQAPGKERELVAAISWRGGSTYYADSVKGRFTISRDNAKNTVYLQMNSLKPEDTAVYYCNGYSPYHAGVDYGYWGQGTQVTVSS”, the “polyreactivity (PSR sort gate)” value is on record as “high polyreactivity”.
As to “QVQLVESGGGLVQAGGSLRLSCAASGSIFLGYVMGWSRQAPGKERELVAAITNSGGSTYYADSVKGRFTISRDNAKNTVYLQINSLKPEDTAVYYCAADSITSKNQGLDYDYWGQGTQVTVSS”, the “polyreactivity (PSR sort gate)” value was “low polyreactivity”.
For the sequence “QVQLVESGGGLVQAGGSLRLSCAASGSTFRYNAMGWYRQAPGKERELVAAISRIGGTTYADSVKGRFTISRDNAKNTVYLQMNSLKPEDTAVYYCARANWGYYGPEYGYWGQGTQVTVSS”, the “polyreactivity (PSR sort gate)” value is on record as “low polyreactivity”.
Regarding “QVQLVESGGGLVQAGGSLRLSCAASGSILRVNAMGWYRQAPGKEREVVAAISSGGITNYADSVKGALHNFTRQCEEYRLFTDEQPETGTYRGQFCARTYRNPASAGSLVVRYPYDYWGQGTQVTVTS”, the “polyreactivity (PSR sort gate)” value is “low polyreactivity”.
Regarding “QVQLVESGGGLVQAGGSLRLSCAASGSTSGFYAMGWYRQAPGKERELVAAIDVSGGSTYYADSVKGRFTISRDNAKNTVYLQIHSLKPEDTAVYYCAAYRRNVWSARYGYWGQGTQVTVSS”, the “polyreactivity (PSR sort gate)” value is listed as “high polyreactivity”.
In the case of “QVQLVESGGGLVQAGGSLRLSCAASGSTFPRNAMGWYRQAPGKERELVAVITGSGGSTYYADSVKGRFTISRDNAKNTVYLQMNSLKPEDTAVYYCNARPTRRTRYDSWGQGTQVTVSS”, the “polyreactivity (PSR sort gate)” value is on record as “high polyreactivity”.
For “QVQLVESGGGLVQSGGSLRLSCAASGRIFNIYAMGWYRPAPGKERELVAAISGSGGRTSYADSVKGRFTISRDNAKNTVYLQMNSLKPEDTAVYYCAADYSFYTSFRYDYWGQGTQVTVSS”, the “polyreactivity (PSR sort gate)” value is recorded as “low polyreactivity”.
As for “QVQLVESGGGLVQAGGSLRLSCAASGLTLDPYAMGWSRQAPGKERELVAAISWSGGGTTYADSVKGRFTISRDNAMNTVYLQMNSLKPEDTAVYYCAAAAPHLSAKMDYWGQGTQVTVSS”, the “polyreactivity (PSR sort gate)” value was “low polyreactivity”.
“QVQLVESGGGLVQAGGSLRLSCAASGLIFRWYAMGWYRQAPGKERELVAAISRRGGTTNYADSVKGRFTISRDNAKNTVYLQMNSLKPEDTAVYYCAADYQSVGGAEYDYWGQGTQVTVSS”: the “polyreactivity (PSR sort gate)” value is given as “high polyreactivity”.
“QFQLVESGGGLVQAGGSLRLSCAASGRIFYRYAMGWYIQAPGKERELVAAITSGTSTNYADSVKGRFTISRDNAKNTVYVQMNSLKPEDTAVYYCAKRYYWKYAEYDYWGQGTLVTVSS”: the “polyreactivity (PSR sort gate)” value is reported as “high polyreactivity”.
In the case of “QVQLVESGGGLVQAGGSLRLSCAASGSIFLYNAMGWYRQAPGKERELVADITTTGGSTYYADSVKGRFTISRDNAKNTVYLQMNSLKPEDTAVYYCNVDYWGQGTQVTVSS”, the “polyreactivity (PSR sort gate)” value is “low polyreactivity”.
In the case of “QVQLVESGGGLVQAGGSLRLSSAASGITFYFNAMRWYRQATGKVSEFVAAISFSGGGTYYADSVKGRFTISRDNAKITDYLDMNSLKPADTAVYYCNADYGRGTLRSIYDYWGQGTQVTVTS”, the “polyreactivity (PSR sort gate)” value was “low polyreactivity”.
Turning to “QVQLVESGGGLVQAGGSLRLSCAASGSILTVYAMGWYRQAPGKERELVARIRSGDRTYYADSVKGRFTISRDNAKNTVYLQMNSLKPEDTAVYYCAAGSQRRYYHTNWDSFNYWGQGSQVTVSS”, the “polyreactivity (PSR sort gate)” value is “low polyreactivity”.
As for “QVQLVESGGGLVQAGGSLRLSCAASGSTFWSYAMGWYRQAPGKERELVAVITWSGGSTNYADSVKGRFTISRDNAKNTVYLQMNSLKPEDTAVYYCNAPYYFWSYIYDYLGQGTQVTVSS”, the “polyreactivity (PSR sort gate)” value is given as “low polyreactivity”.
In the case of “QVQRVESGGGLVQAGGSLRLSCAASGRIFVNYPIGWYRQAPGKERELVAAITSHGSTSYADSVKGRFTISRDNAKNTVYLQMNSLKPEDTAVYYCANDFFEHSPVSHTYSSSKYDYWGQGTQVTVSS”, the “polyreactivity (PSR sort gate)” value is “low polyreactivity”.
As for “QVQLVESGGGLVQAGGSLRLSCAASGRIFSYYTMGWYRQAPGKERELVAAITASDGDTYYADSVKGRFTISRDNAKNTVYLQMNSLKPEDTAVYYCNAELFSVNGYDYWGQGTQVTVSS”, the “polyreactivity (PSR sort gate)” value is “low polyreactivity”.
Turning to “QVQLVESGGGLVQAGGSLRLSCAASGSILTINAMGWYRQAPGKERELVARITISSGSTYYADSVKGRFTISRDNAKNTVYLQMNSLKPEDTAVYYCATDGRSNYYWGDYWGQGTQVTVSS”, the “polyreactivity (PSR sort gate)” value was “low polyreactivity”.
With “QVQLVESGGGLVQAGGSLRLSCAASGSTFDDNAMGWYRQAPGKERELVAAINGDGITTYADSVKGRFTISRDNAKNTVYLQMNSMKPEDTAVYYCNTVGIGAWGYSYPDEDNYWGQGTQVTVSS”, the “polyreactivity (PSR sort gate)” value was “low polyreactivity”.
On to “QVQLVESRGGLVQAGGRLRLSCAASGIIFPRNAMGWYRQAPGKERELVAAITNTGSTKYADSVKGRFTISRDNEKNTVYLHMNSLKPEDTAVYFCAKELCSVPSPSLYDYWGQGTQVTVSS”, for which the “polyreactivity (PSR sort gate)” value is on record as “low polyreactivity”.
Turning to “QVQHVESGGGLVQAGGSLRLSCAASGFIFDRYAMGWYRQAPGKERELVAAISSGGSTYYADSVKGRFTISRDNAKNTVYLQMNSLKPEDTAVYYCAAESWLNFIYEYDYWGQGTQVTVSS”, the “polyreactivity (PSR sort gate)” value was “low polyreactivity”.
“QVQLVESGGGLVQAGGSLRLSCAASGRTFYTYAMGWYRQAPGKDREFVAVISGRGARTYYADSVKGRFTISRDNAKNTVYLQMNSLKPEDTAVYYCAAVPPRKDYQHMDYWGQGTQVTVSS”: the “polyreactivity (PSR sort gate)” value is “low polyreactivity”.
For the sequence “QVQLVESGGGLVQAGGSLRLSCAASGSIFDNNAMGWYRQAPGKERELVAAISRSGGSTYYADSVKGRFTISRDNAKNTVYLQMNSLKPDDTAVYYCAALPSRPRGYDYWGQGTQVTVSS”, the “polyreactivity (PSR sort gate)” value was “high polyreactivity”.
The entry for “QVQLVESGGGLVQAGGSLRISCAASGSIFGGYSMGWYRQAPGKERELVAAIRYSGVSTYYADSVKGRFTISRDNAKYTVYFQMNSLKAEDTAVYYCNAVPFYYHYDYWGQGTQVTVSS” is “high polyreactivity”.
As to “QVQLVESGGGLVQAGGSLRLSCAASGSIFKINAMGWYRQAPGKEREWVAAITRSGGSTYYADSVKGRFTISLDNAKNTVYLQMNSLKPEDTAVYYCNASTSRSTSLSSRFYYWGQGTQVTVSS”, the “polyreactivity (PSR sort gate)” value is given as “high polyreactivity”.
For “QVQLVESGGGLVQAGARLRLSCAASGSILPTNAMGWYRQAPGKERELVASITYNGGRTSYADSVKWRFTISRDNAKNTVYLQMNSLKPEDTAVYYCAARVWYQGYKSMGYWGQGTQVPVSS”, the “polyreactivity (PSR sort gate)” value is on record as “high polyreactivity”.
In the case of “QVQLVESGGGLVQAGGSLRLSCDASGLTFSWYAMGWSRQAPGKERELVAAISRSGGSTYYADSVKGRFSISRDKAKNTVYLQMNSLKPEDTGVYYCAAETDIAPDYDYWGQGTQVTVSS”, the “polyreactivity (PSR sort gate)” value is reported as “low polyreactivity”.
As for “QVQLVESGGGLVQAGGSLRLSCAASGSTFGWNAMGWYRQAPGKERDLVAAITGGGSTYYADSVKGRFTISRDNAKNTVYLQMNSLKPEDSAVYYCEGDYWGQGTQVTVSS”, the entry is “low polyreactivity”.
For “QVQLVESGGGLVQAGGSLRLSCAASGSIFGAYAMRWYRQAPGKERELVAAISYGGGNTYYADSVKGRFTISRDNAKNTVYLQMNSLKPEDTAFYYCNALFPRVSGSTYRYNYWGQGTQVTVSS”, the “polyreactivity (PSR sort gate)” value is on record as “high polyreactivity”.
As for “QVQLVESGGGLVQAGGSLRLSCAASGIIFESYAMGSYRQAPGKEREFVAAISSRGGSTYYADSVKGRFTISRDNAKNTVYLQMNSLKPEDTAVYYCAARGYRRTFDYREYDSWGQGTQVTVSS”, the “polyreactivity (PSR sort gate)” value is given as “low polyreactivity”.
Consider “QVQLVESGGGLVQAGGSLRLSCAASGSIFYYYVMGWYRQAPGKERELVAAISSGGGTNYADSVKGRFTISRDNAKNTVYLQLNRLKPEDTAVYYCAKASAYGLANDYDYWGQGTLVTVSS”, for which the “polyreactivity (PSR sort gate)” value was “low polyreactivity”.
